The term Kd denotes the free concentration of one partner at which half of the binding sites on the other are occupied at equilibrium, for simple one-to-one binding. Read a low Kd as higher affinity.

First the molecules themselves.
T1: Gal3 Peptide 7 (AYPGAPGAYPGAPAPGVYPG) (human)
T1 peptide: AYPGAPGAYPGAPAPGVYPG

T2: Gal3 Peptide 1 (ADNFSLHDALSGSGNPNPQG) (human)
T2 peptide: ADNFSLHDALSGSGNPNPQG

B1: 14H10.2C9 (antibody, V domains shown)
VH: QIQLVQSGPELKKPGETVKISCKASGYTFTTYGMGWVKQAPGKDLKWMGWINTYSGVPTYADDFKGRFAFSLETSASTAYLQISNLKNEDTATYFCSTPYEYDGAYWGQGTLVTVSA
VL: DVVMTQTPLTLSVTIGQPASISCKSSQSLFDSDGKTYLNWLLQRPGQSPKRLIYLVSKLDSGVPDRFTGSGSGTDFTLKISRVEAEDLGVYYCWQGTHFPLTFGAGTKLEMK
B2: 19D9.2E5 (antibody, V domains shown)
VH: B1 VH with D44G, A76T, S84N, T91M, S97A
VL: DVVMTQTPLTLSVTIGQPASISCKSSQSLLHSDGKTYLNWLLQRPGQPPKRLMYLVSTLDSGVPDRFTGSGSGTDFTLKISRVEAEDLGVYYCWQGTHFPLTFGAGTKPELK
B3: 12G5.D7 (antibody, V domains shown)
VH: QVQLKQSGAELVRPGASVKLSCKASGYTFTDYYINWVKQRPGQGLEWIARIYPGTGNTDYNEKFKGRATLTAEKSSSTAYMQLSSLTSEDSAVYFCARFAYYYGSGGYFDYWGHGTTLTVSS
VL: DILMTQSPSSMSVSLGDTVSITCHASQGINSNMGWLQQKPGKSFKGLIYHATNLEDGVPSRFSGSGSGADYSLTISSLESEDFADYYCVQYAQFPPTFGSGTKLEIK
B4: 2D10.2B2 (antibody, V domains shown)
VH: QVQLQQSGPELVKPGASVKISCKASGYTFTDYYINWVKQRPGQGLEWIGWIYPGSNDTKYNEKFKGKATLTVDTSSSTAYMQLGSLTSEDSAVYFCANYFGCSGWFFDVWGTGTTVTVSS
VL: DIVMTQAAFSNPVTLGTSASISCRSSKSLLHSDGITYLYWYLQRPGQSPQLLIYRMSNLASGVPDRFSGSGSGTDFTLRISRVEAEDVGVYYCAQMIEFPLTFGAGTILELK
B5: 4A11.2B5 (antibody, V domains shown)
VH: QVQLQQSGPELVKPGASVKISCKASGYSFTNYYIHWVKQRPGQGLEWIGWIYPGSGNTNYNEKFKGKATLTADTSSSTTNMQLSSLTSEDSAVYYCSTAPGGFDVWGSGTTVTVSS
VL: B4 VL with I97L, I108K
B6: 24D12.2H9 (antibody, V domains shown)
VH: QVQLKQSGPGLVQPSQSLSITCTVSGFSLTSYGVHWVRQAPGKGLEWLGVIWSGGSTDYNAAFMSRLSISKDNSKSQVFFKMNSLQADDTAIYYCAKSPDGYDVAWFGYWGQGTLVTVSA
VL: DIVMTQSHKFMSTSVGDRVSITCKASQDVRTAVAWYQQKPGQSPKLLIYWASTRHTGVPDRFTGSGSGTDFTLTLSNVQSEDLADYFCQQYSSYPWTFGGGTKLEIK
B7: 19B5.2E6 (antibody, V domains shown)
VH: QIQLVQSGPELKKPGETVKISCKASGYTFTTYAMSWVKQAPGKGLKWMGWINTYSGVPTYADDLKGRFAFSLETSASTAYLQINNLKNEDTATYFCARGPYAMDYWGQGTSVTVSS
VL: DIQMTQTTSSLSASLGDRVTISCSASQGINNYLNWYQQKPDGTVKLLIYYASSLHSGVPSRFSGSGSGTDYSLTISNLEPEDIATYYCQQYSQVPYTFGSGTKLEIK
B8: 13A12.2E5 (antibody, V domains shown)
VH: QIQLVQSGPELKKPGETVKISCKTSGYKFKTYVMSWVKQAPGKALKWMGWINTYSGVPTYADDFKGRFAFSLETSASTAYLEIINLKNEDTATYFCARDGNYGDPMDYWGQGTSVTVSS
VL: DVVMTQTPLTLSVAIGQPASISCKSSQSLLYTNGKTYLNWLLQRPGQSPKRLIYLLSKLDSGVPDRFSASGSGTDFTLKISRVEAEDLGVYYCLQSTHFPLTFGAGTKLEMK
B9: F846C.1F5 (antibody, V domains shown)
VH: QIQLVQSGPELKKPGETVKISCKASGYTFTNYGMNWVKQAPGKGLKWMGWINTYTGEPSYADDFKGRFAFSLETSASTAYLQINNLKNEDMATYFCARWGGYDGDYYAMDYWGQGTSVTVSS
VL: NIMMTQSPSSLAVSAGEKVTMSCKSSQSVLYSSNQKNYLAWYQQKPGQSPKLLIYWASTRESGVPDRFTGSGSGTDFTLTISSVQPEDLAVYYCHQYLSSLTFGAGTKLELK
notes: also called 846.1F5
B10: IMT001 (TB001) (antibody, V domains shown)
VH: QVQLVQSGSELKKPGASVKVSCKASGYTFTNYGMNWVRQAPGQGLKWMGWINTNTGEPTYVEEFTGRFVFSLETSVSTAYLQISSLKAEDTAVYFCAPYDNFFAYWGQGTTVTVSS
VL: DIVLTQSPLSLPVTPGEPASISCRSSKSLLYKDGKTYLNWFLQKPGQSPQLLIYLMSTHASGVPDRFSGSGSGTDFTLKISRVEAEDVGVYYCQQLVDYPLTFGGGTKLEIK
notes: anti-Gal3 antibody; also called IMT001-4
B11: IMT006 (TB006) (antibody, V domains shown)
VH: QVQLVQSGAEVKKPGASVKVSCKASGYSFTNYYMHWVRQAPGQRLEWMGWIYPGSGNTNYNEKFQGRVTITADTSASTAYMELSSLRSEDTAVYYCSTAPGGFDVWGQGTTVTVSS
VL: DIVMTQTPLSLSVTPGQPASISCKSSKSLLHSDGITYLYWYLQKPGQSPQLLIYRMSNLASGVPDRFSGSGSGTDFTLKISRVEAEDVGVYYCAQMLEFPLTFGQGTKLEIK
notes: anti-Gal3 antibody
B12: 15G7.2A7 (antibody, V domains shown)
VH: EVQLQQSGPELVKPGASVKISCKASGYTFTDYYMNWVKQSHGKSLEWIGDINPNNGGTNYNQKFKGKATLTVDKSSSTAYMELRSLTSEDSAVYYCTSGYGFPYWGQGTLVTVSA
VL: DIQMNQSPSSLSASLGDTISITCRASQNINIWLSWYQQKPGNIPQLLIYKASNLHTGVPSRFSGSGSGTDFTLTISSLQPEDIATYYCLQGQSYPLTFGAGTKLVMK

Positions count from the first letter of the chain named. Numbers in names are those of the source. Some results are limits rather than exact numbers.

The target of one test is T3, Human Galectin-3 protein (Acro Biosystems, GA3-H5129) (human, UniProt P17931 2-250).
T3 construct: Bought protein; also called Gal3-ECD-His; Gal3-His; not shown: linker-spaced 6-histidine tag
As to the kind of experiment: blocking ELISA (Gal3 coated; antibody 3 µg/mL + INSR). (In an ELISA, binding on a coated surface is turned into a signal by an enzyme label.)
Regarding B1, the “Gal3-INSR binding remaining, % of unblocked sample” value (“Gal3-INSR binding remaining, %” for short) is < 5%.

As to B2, the “Gal3-INSR binding remaining, %” value was < 5%.

With B3, the “reduction of Gal3-INSR binding (%)” value was ≤ 30%.

In the case of B4, the “Gal3-INSR binding remaining, %” value was < 5%.

In the case of B5, the “Gal3-INSR binding remaining, %” value is < 5%.

For the molecule B6, the “reduction of Gal3-INSR binding (%)” value is ≤ 30%.

B7: the “Gal3-INSR binding remaining, %” value was < 5%.

In the case of B8, the “Gal3-INSR binding remaining, %” value was < 5%.

A further test has as its target T4, Human GAL3 protein (TrueBinding, QCB200349 / QCB200352; R&D Systems, 8259-GA) (human, UniProt P17931 2-250).
T4 construct: also called human galectin-3
As to the kind of experiment: blocking ELISA (GAL3 coated; antibody + biotinylated ITGa3).
In the case of B1, the “percent blockade of GAL3-ITGa3 interaction” value was > 90%.

With B9, the “percent blockade of GAL3-ITGa3 interaction” value is > 90%.

Turning to B3, the “percent blockade of GAL3-ITGa3 interaction” value is < 35%.

For B4, the “percent blockade of GAL3-ITGa3 interaction” value was > 90%.

Consider B7, for which the “percent blockade of GAL3-ITGa3 interaction” value was > 90%.

For the molecule B10, the “percent blockade of GAL3-ITGa3 interaction” value is > 90%.

On to B8, for which the “percent blockade of GAL3-ITGa3 interaction” value was > 90%.

Consider B11, for which the “percent blockade of GAL3-ITGa3 interaction” value was > 90%.

A further test deals with T4, Human GAL3 protein (TrueBinding, …). As to the kind of experiment: blocking ELISA (GAL3 coated; antibody + biotinylated ITGaV).
As to B1, the “percent blockade of GAL3-ITGaV interaction” value was > 90%.

Consider B9, for which the “percent blockade of GAL3-ITGaV interaction” value was > 90%.

For the molecule B3, the “percent blockade of GAL3-ITGaV interaction” value is < 30%.

B4: the “percent blockade of GAL3-ITGaV interaction” value was > 90%.

B7: the “percent blockade of GAL3-ITGaV interaction” value was > 90%.

Regarding B10, the “percent blockade of GAL3-ITGaV interaction” value was > 90%.

As for B11, the “percent blockade of GAL3-ITGaV interaction” value is > 90%.

The target is the same in a further test. As to the kind of experiment: blocking ELISA (GAL3 coated; antibody + biotinylated ITGb1).
In the case of B9, the “percent blockade of GAL3-ITGb1 interaction” value was > 90%.

B10: the “percent blockade of GAL3-ITGb1 interaction” value is > 90%.

For the molecule B11, the “percent blockade of GAL3-ITGb1 interaction” value was > 90%.

For a further test the target is unchanged. Description: blocking ELISA (GAL3 coated; antibody + biotinylated ITGb3).
B1: the “percent blockade of GAL3-ITGb3 interaction” value is > 90%.

As for B9, the “percent blockade of GAL3-ITGb3 interaction” value was > 90%.

B3: the “percent blockade of GAL3-ITGb3 interaction” value was < 10%.

As to B4, the “percent blockade of GAL3-ITGb3 interaction” value is > 90%.

Take B7: the “percent blockade of GAL3-ITGb3 interaction” value is > 90%.

For the molecule B10, the “percent blockade of GAL3-ITGb3 interaction” value was > 90%.

For the molecule B8, the “percent blockade of GAL3-ITGb3 interaction” value is > 90%.

For B11, the “percent blockade of GAL3-ITGb3 interaction” value was > 90%.

In another test the target is T3, Human Galectin-3 protein (Acro …). As to the kind of experiment: ELISA, blocking of INSR binding to coated Gal3.
As to B4, the “IC50 (read off the curve)” value was ~0.5 µg/mL.

On to B10, for which the “IC50 (read off the curve)” value is ~0.8 µg/mL.

As for B11, the “IC50 (read off the curve)” value was ~0.7 µg/mL.

For a further test, the target named is T1, Gal3 Peptide 7 (AYPGAPGAYPGAPAPGVYPG). Description: peptide ELISA (peptide coated; antibody hIgG4 [S228P], 5 µg/mL).
Turning to B7, the binding result was “binds”.

For a further test, the target named is T2, Gal3 Peptide 1 (ADNFSLHDALSGSGNPNPQG). Described as above.
Take B7: the binding result is reported as “binds”.

In another test the target is T3, Human Galectin-3 protein (Acro …). Description: ELISA, blocking of INSR binding to coated Gal3. This is another data set of the same source.
On to B1, for which the “Gal3-INSR Blocking @ 3 µg/mL” value was 100%.

In the case of B2, the “Gal3-INSR Blocking @ 3 µg/mL” value was found to be 100%.

Regarding B3, the “Gal3-INSR Blocking @ 3 µg/mL” value was determined as 27%.

On to B4, for which the “Gal3-INSR Blocking @ 3 µg/mL” value is 100%.

In the case of B5, the “Gal3-INSR Blocking @ 3 µg/mL” value came out at 100%.

For B6, the “Gal3-INSR Blocking @ 3 µg/mL” value is 22%.

Turning to B7, the “Gal3-INSR Blocking @ 3 µg/mL” value was 100%.

As to B10, the “Gal3-INSR Blocking @ 3 µg/mL” value is 100%.

As for B12, the “Gal3-INSR Blocking @ 3 µg/mL” value is 100%.

On to B8, for which the “Gal3-INSR Blocking @ 3 µg/mL” value turned out to be 97%.

Take B11: the “Gal3-INSR Blocking @ 3 µg/mL” value came to 100%.

For the next test the target is unchanged. As to the kind of experiment: SPR (Biacore T200), antibody captured, Galectin-3 as analyte. A general note: SPR reads the build-up and loss of mass on a sensor chip optically.
Take B1: binding was put at a Kd of 0.562 nM.

Regarding B2, the Kd is < 1 nM.

Molecule B3 registered a Kd of 1.9 nM.

Regarding B4, the Kd is 0.753 nM.

B5: the affinity, expressed as Kd, was 5.22 nM.

On to B6, for which the Kd amounted to 4.13 nM.

Consider B7, for which the Kd is < 1 nM.

B10 registered a Kd of 6.09 nM.

For the molecule B12, binding was put at a Kd of 11.3 nM.

Turning to B8, the affinity, expressed as Kd, was 8.2 nM.

The molecule B11 displayed a Kd of 16.5 nM.

For the next test the target is unchanged. Description: SPR (Biacore T200; antibody captured via anti-Fc, Galectin-3 analyte, 1:1 fit).
B12 yielded a dissociation constant (Kd) of 27.8 nM.

For the origin of these results see patent US20230094463A1 (TRUEBINDING, published 2023).
